Experimental data: patent US20170306033A1 (Amgen, published 2017)
Changes are numbered by the printed parent chain.

T1: human PAC1 receptor (human, UniProt P41586 21-468)
T1 sequence: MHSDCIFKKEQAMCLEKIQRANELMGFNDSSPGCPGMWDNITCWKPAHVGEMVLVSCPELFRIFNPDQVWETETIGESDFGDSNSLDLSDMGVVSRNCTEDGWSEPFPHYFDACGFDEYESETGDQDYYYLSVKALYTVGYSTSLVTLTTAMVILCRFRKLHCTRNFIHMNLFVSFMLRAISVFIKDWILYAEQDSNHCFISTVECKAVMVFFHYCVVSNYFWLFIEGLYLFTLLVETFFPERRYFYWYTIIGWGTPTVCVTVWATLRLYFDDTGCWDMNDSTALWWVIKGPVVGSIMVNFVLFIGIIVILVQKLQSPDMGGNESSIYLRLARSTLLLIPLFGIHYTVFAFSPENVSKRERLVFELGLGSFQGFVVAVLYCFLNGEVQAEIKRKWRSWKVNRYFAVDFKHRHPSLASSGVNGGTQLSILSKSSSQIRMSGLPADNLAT

B1: iPS:327732 (bispecific antibody, human IgG1, kappa, lambda, N297G)
light 1: not shown
heavy 1: not shown
light 2: QSVLTQPPSVSAAPGQKVTISCSGSSSNIGNNYVSWYQQLPGTAPKLLIYDNNKRPSGIPDRFSGSKSGTSATLGITGLQTGDEADYYCGTWDSRLSAVVFGGGTKLTVLGQPKANPTVTLFPPSSEELQANKATLVCLISDFYPGAVTVAWKADGSPVKAGVETTKPSKQSNNKYAAKSYLSLTPEQWKSHRSYSCQVTHEGSTVEKTVAPTECS
heavy 2: QVQLVESGGGVVQPGRSLRLSCAASGFTFSSFGMHWVRQAPGKGLEWVAVISFDGSIKYSVDSVKGRFTISRDNSKNTLFLQMNSLRAEDTAVYYCARDRLNYYESSGYYHYKYYGMAVWGQGTTVTVSSASTKGPSVFPLAPSSKSTSGGTAALGCLVKDYFPEPVTVSWNSGALTSGVHTFPAVLQSSGLYSLESVVTVPSSSLGTQTYICNVNHKPSNTKVDKKVEPKSCDKTHTCPPCPAPELLGGPSVFLFPPKPKDTLMISRTPEVTCVVVDVSHEDPEVKFNWYVDGVEVHNAKTKPCEEQYGSTYRCVSVLTVLHQDWLNGKEYKCKVSNKALPAPIEKTISKAKGQPREPQVYTLPPSRKEMTKNQVSLTCLVKGFYPSDIAVEWESNGQPENNYKTTPPVLKSDGSFFLYSKLTVDKSRWQQGNVFSCSVMHEALHNHYTQKSLSLSPGK
B2: iPS:327736 (bispecific antibody, human IgG1, kappa, lambda, N297G)
light 1: not shown
heavy 1: not shown
light 2: B1 light 2 with G103K
heavy 2: B1 heavy 2 with G44E
B3: iPS:327735 (bispecific antibody, human IgG1, kappa, lambda, N297G)
light 1: DIQMTQSPSSLSASVGDRITITCRASQSISRYLNWYQQKPGKAPKLLIYAASSLQSGIPSRFSGSGSGTDFTLTINSLQPEDFATYFCQQSYSPPFTFGEGTKVDIKRTVAAPSVFIFPPSDEQLKSGTASVVCLLNNFYPREAKVQWKVDNALQSGNSQESVTEQDSKDSTYSLESTLTLSKADYEKHKVYACEVTHQGLSSPVTKSFNRGEC
heavy 1: not shown
light 2: B1 light 2 with G103K
heavy 2: B1 heavy 2 with G44E
B4: iPS:327724 (bispecific antibody, human IgG1, kappa, lambda, N297G)
light 1: not shown
heavy 1: not shown
light 2: B1 light 2 with G75A, G103K
heavy 2: B1 heavy 2 with G44E, E105D
B5: iPS:327727 (bispecific antibody, human IgG1, kappa, lambda, N297G)
light 1: not shown
heavy 1: not shown
light 2: B1 light 2 with G75A
heavy 2: B1 heavy 2 with E105D, E370K
B6: iPS:327726 (bispecific antibody, human IgG1, kappa, lambda, N297G)
light 1: EIVLTQSPATLSLSPGERATLSCRASQSVGRSLHWYQQKPGQAPRLLIKYASQSLSGIPARFSGSGSGTDFTLTISSLEPEDFAVYYCHQSSRLPFTFGEGTKVDIKRTVAAPSVFIFPPSDEQLKSGTASVVCLLNNFYPREAKVQWKVDNALQSGNSQESVTEQDSKDSTYSLESTLTLSKADYEKHKVYACEVTHQGLSSPVTKSFNRGEC
heavy 1: not shown
light 2: B1 light 2 with G75A, G103K
heavy 2: B1 heavy 2 with G44E, E105D
B7: iPS:327734 (bispecific antibody, human IgG1, kappa, lambda, N297G)
light 1: B6 light 1 with E100P
heavy 1: not shown
light 2: B1 light 2
heavy 2: B1 heavy 2
B8: iPS:327733 (bispecific antibody, human IgG1, kappa, lambda, N297G)
light 1: DIQLTQSPSFLSASVGDRVTITCRASQSIGRSLHWYQQKPGKAPKLLIKYASQSLSGVPSRFSGSGSGTEFTLTISSLQPEDFATYYCHQSSRLPFTFGPGTKVDIKRTVAAPSVFIFPPSDEQLKSGTASVVCLLNNFYPREAKVQWKVDNALQSGNSQESVTEQDSKDSTYSLESTLTLSKADYEKHKVYACEVTHQGLSSPVTKSFNRGEC
heavy 1: not shown
light 2: B1 light 2
heavy 2: B1 heavy 2
B9: iPS:327725 (bispecific antibody, human IgG1, kappa, lambda, N297G)
light 1: B8 light 1 with P100E
heavy 1: not shown
light 2: B1 light 2 with G75A, G103K
heavy 2: B1 heavy 2 with G44E, E105D
B10: iPS:327722 (bispecific antibody, human IgG1, kappa, lambda, N297G)
light 1: B3 light 1
heavy 1: not shown
light 2: B1 light 2 with G75A, G103K
heavy 2: B1 heavy 2 with G44E, E105D
B11: iPS:327737 (bispecific antibody, human IgG1, kappa, lambda, N297G)
light 1: B8 light 1 with P100E
heavy 1: not shown
light 2: B1 light 2 with G103K
heavy 2: B1 heavy 2 with G44E
B12: iPS:327728 (bispecific antibody, human IgG1, kappa, lambda, N297G)
light 1: not shown
heavy 1: not shown
light 2: B1 light 2 with G75A
heavy 2: B1 heavy 2 with E105D, E370K
B13: iPS:326663 (bispecific antibody, human IgG2, kappa)
light 1: B8 light 1
heavy 1: QVQLVESGAEVVKPGASVKVSCKASGFTFSRFAMHWVRQAPGQGLEWMGVISYDGGNKYYAESVKGRVTMTRDTSTSTLYMELSSLRSEDTAVYYCARGYDVLTGYPDYWGQGTLVTVSSASTKGPSVFPLAPCSRSTSESTAALGCLVKDYFPEPVTVSWNSGALTSGVHTFPAVLQSSGLYSLKSVVTVPSSNFGTQTYTCNVDHKPSNTKVDKTVERKCCVECPPCPAPPVAGPSVFLFPPKPKDTLMISRTPEVTCVVVDVSHEDPEVQFNWYVDGVEVHNAKTKPREEQFNSTFRVVSVLTVVHQDWLNGKEYKCKVSNKGLPAPIEKTISKTKGQPREPQVYTLPPSREEMTKNQVSLTCLVDGFYPSDIAVEWESNGQPENNYDTTPPMLDSDGSFFLYSDLTVDKSRWQQGNVFSCSVMHEALHNHYTQKSLSLSPGK
light 2: EIVLTQSPGTLSLSPGERATLSCRASQSVSSGYLTWYQQKPGQAPRLLIYGASSRATGIPDRFSGSGSGTDFTLTISRLEPEDFAVYYCQQYGNSLSRFGQGTKLEIKRTVAAPSVFIFPPSDEQLKSGTASVVCLLNNFYPREAKVQWKVDNALQSGNSQESVTEQDSKDSTYSLKSTLTLSKADYEKHKVYACEVTHQGLSSPVTKSFNRGEC
heavy 2: QVQLVESGGGVVQPGRSLRLSCAASGFTFSSYGMHWVRQAPGKGLEWVAVIWYDGSNKYYADSVKGRFIISRDKSKNTLYLQMNSLRAEDTAVYYCARAGGIAAAGLYYYYGMDVWGQGTTVTVSSASTKGPSVFPLAPCSRSTSESTAALGCLVKDYFPEPVTVSWNSGALTSGVHTFPAVLQSSGLYSLESVVTVPSSNFGTQTYTCNVDHKPSNTKVDKTVERKCCVECPPCPAPPVAGPSVFLFPPKPKDTLMISRTPEVTCVVVDVSHEDPEVQFNWYVDGVEVHNAKTKPREEQFNSTFRVVSVLTVVHQDWLNGKEYKCKVSNKGLPAPIEKTISKTKGQPREPQVYTLPPSRKKMTKNQVSLTCLVKGFYPSDIAVEWESNGQPENNYKTTPPMLKSDGSFFLYSKLTVDKSRWQQGNVFSCSVMHEALHNHYTQKSLSLSPGK

These binders were tested against human CGRP receptor (human, UniProt Q16602 23-461; O60894 27-148) (assay: cell-based or functional assay).
human CGRP receptor, sequence (Q16602 23-461 limits assumed, chain 1 of 2): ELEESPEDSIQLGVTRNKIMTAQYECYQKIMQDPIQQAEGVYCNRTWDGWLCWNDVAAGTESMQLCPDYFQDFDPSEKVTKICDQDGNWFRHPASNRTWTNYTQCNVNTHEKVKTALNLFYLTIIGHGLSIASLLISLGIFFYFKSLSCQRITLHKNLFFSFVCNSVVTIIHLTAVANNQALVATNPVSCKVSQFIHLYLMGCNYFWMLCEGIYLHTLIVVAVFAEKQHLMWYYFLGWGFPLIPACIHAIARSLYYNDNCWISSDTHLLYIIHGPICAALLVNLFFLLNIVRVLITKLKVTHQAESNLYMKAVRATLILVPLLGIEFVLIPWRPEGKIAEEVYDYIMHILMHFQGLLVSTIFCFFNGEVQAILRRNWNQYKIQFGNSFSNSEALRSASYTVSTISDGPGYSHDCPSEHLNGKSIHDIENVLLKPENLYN
human CGRP receptor, sequence (O60894 27-148 limits assumed, chain 2 of 2): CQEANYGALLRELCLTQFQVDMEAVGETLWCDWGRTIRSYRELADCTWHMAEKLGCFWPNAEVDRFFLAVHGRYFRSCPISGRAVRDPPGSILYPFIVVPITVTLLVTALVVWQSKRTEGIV

% inhibition of human CGRPR [%] | Binder
69 | B1
88 | B2
81 | B3
80 | B4
93 | B5
91 | B6
82 | B7
84 | B8
86 | B9
82 | B10
82 | B11
80 | B12
64 | B13

The binders below were run against T1, human PAC1 receptor (assay: cell-based or functional assay).

% inhibition of human PAC1 [%] | Binder
56 | B1
20 | B2
68 | B3
33 | B4
93 | B5
77 | B6
99 | B7
66 | B8
39 | B9
38 | B10
54 | B11
79 | B12
62 | B13
